From patent US20070071759A1

Biological target: T1, NKG2D receptor on NK cells freshly isolated from C57BL6 or on KY-2 cells (murine NK cell line) (murine) (UniProt O54709)
T1 sequence (looked up): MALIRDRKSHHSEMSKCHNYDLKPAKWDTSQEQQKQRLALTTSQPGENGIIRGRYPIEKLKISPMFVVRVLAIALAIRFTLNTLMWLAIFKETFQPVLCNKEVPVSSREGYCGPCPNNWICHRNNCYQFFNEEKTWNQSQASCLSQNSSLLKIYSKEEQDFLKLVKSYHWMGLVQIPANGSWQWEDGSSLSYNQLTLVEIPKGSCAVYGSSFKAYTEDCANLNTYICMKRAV
Experiment: cell-based or functional assay

redirected lysis of P815 or J774 cells by KY-2 cells: < 22%
Substance: anti-HER2 IgG3-CH3-Rae-1β fusion protein (from UniProt P01860 1-377; O08603 29-229)
NK cell-mediated killing (direct lysis, KY-2 effector cells): 15 to 59%
